PMC3940844

Experiments:
[1] = molecular target: FH-p53 (FLAG- and oligohistidine-tagged human p53) (human) (UniProt P04637); assay: pull-down; competitive GST pull-down: FH-TLP or FH-TBP co-applied with FH-p53 to beads with GST-TBP or GST-TLP; recovered p53 by band intensity
[2] = molecular target: GST-TBP (glutathione S-transferase-tagged human TATA-binding protein) (human) (UniProt P20226); assay: pull-down; GST pull-down with increasing amounts of protein (p53 by the text, GST proteins by the legend); ratio of bound p53 to input by band intensity
Sequence of GST-TBP (glutathione S-transferase-tagged human TATA-binding protein) (human) (P20226 whole entry): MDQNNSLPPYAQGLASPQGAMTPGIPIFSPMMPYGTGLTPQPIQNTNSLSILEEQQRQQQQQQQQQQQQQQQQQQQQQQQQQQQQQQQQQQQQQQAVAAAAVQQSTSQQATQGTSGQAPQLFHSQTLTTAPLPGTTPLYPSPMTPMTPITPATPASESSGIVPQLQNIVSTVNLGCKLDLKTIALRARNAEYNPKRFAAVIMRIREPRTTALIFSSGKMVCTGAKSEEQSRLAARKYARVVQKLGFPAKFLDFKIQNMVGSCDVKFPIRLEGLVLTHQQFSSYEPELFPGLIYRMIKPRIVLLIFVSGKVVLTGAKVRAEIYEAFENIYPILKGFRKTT

| Substance | p53 recovered on GST-TLP with FH-TBP as competitor, percent of the control experiment [1] [%] | ratio of bound p53 to input at the plateau [2] |
| --- | --- | --- |
| FH-TBP (purified competitor in the pull-down) (from UniProt P20226 1-339) (natural protein) | 6 |  |
| FH-p53 (FLAG- and oligohistidine-tagged human p53) (from UniProt P04637 1-393) (natural protein) |  | 0.5 |
